{
  "source": "patent US20200017851A1",
  "key": {"mesothelin (MSLN) [1]": {"biological_target": "mesothelin (MSLN) (UniProt Q13421)", "test": "virus binding to Panc-1 cells (MSLN strongly-positive), 4 C, E4 qPCR; reference AdML-5WT (native Ad5 fiber)"}, "mesothelin (MSLN) [2]": {"biological_target": "mesothelin (MSLN) (UniProt Q13421)", "test": "virus binding to Panc-1 cells (MSLN strongly-positive), 4 C, E4 qPCR; reference AdMG553 (Ad5/Ad3 fiber)"}},
  "data": [
    {"substance": "AdML-VTIN (isolated adenovirus with the VTINRSA (SEQ ID NO:12) motif in the AB-loop of the fiber knob) (from UniProt P11818 1-410; P11818 418-581)", "values": [
      {"measurement": "fold binding ability against AdML-5WT", "setting": "mesothelin (MSLN) [1]", "value": 5, "unit": "fold"},
      {"measurement": "fold binding ability against AdMG553", "setting": "mesothelin (MSLN) [2]", "value": 2, "unit": "fold"}
    ]}
  ]
}
